Source: US20250019450A1 (DIAGONAL THERAPEUTICS, published 2025)

T1: cyno IL-12RB2 overexpressed on 293T cells (Example 2) (cyno, UniProt A0A2K5VNI7 24-860)
T1 construct: whole, on cells
T1 sequence: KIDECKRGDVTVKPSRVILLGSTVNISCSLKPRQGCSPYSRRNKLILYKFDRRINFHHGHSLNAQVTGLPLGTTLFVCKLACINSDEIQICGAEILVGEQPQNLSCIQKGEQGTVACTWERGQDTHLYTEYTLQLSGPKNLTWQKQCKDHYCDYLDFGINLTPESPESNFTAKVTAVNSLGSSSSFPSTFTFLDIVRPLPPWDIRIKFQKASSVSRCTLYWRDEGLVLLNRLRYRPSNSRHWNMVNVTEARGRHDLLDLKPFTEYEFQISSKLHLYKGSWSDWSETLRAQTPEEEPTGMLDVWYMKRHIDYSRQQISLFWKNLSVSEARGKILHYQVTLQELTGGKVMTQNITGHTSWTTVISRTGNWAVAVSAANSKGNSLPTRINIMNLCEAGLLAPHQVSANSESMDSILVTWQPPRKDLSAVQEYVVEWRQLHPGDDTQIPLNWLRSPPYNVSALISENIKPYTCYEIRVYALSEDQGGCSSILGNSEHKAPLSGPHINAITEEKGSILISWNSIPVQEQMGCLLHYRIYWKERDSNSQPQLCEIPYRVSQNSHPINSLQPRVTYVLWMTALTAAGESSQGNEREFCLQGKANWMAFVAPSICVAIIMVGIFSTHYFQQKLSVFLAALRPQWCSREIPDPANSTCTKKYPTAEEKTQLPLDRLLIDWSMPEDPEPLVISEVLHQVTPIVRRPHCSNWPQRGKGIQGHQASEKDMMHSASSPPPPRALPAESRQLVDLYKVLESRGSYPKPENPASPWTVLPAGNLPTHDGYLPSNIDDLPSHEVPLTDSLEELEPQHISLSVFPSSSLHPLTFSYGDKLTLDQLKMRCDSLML

T2: human IL-12RB2 overexpressed on 293T cells (Example 2) (human, UniProt Q99665 24-862)
T2 construct: whole, on cells
T2 sequence (looked up): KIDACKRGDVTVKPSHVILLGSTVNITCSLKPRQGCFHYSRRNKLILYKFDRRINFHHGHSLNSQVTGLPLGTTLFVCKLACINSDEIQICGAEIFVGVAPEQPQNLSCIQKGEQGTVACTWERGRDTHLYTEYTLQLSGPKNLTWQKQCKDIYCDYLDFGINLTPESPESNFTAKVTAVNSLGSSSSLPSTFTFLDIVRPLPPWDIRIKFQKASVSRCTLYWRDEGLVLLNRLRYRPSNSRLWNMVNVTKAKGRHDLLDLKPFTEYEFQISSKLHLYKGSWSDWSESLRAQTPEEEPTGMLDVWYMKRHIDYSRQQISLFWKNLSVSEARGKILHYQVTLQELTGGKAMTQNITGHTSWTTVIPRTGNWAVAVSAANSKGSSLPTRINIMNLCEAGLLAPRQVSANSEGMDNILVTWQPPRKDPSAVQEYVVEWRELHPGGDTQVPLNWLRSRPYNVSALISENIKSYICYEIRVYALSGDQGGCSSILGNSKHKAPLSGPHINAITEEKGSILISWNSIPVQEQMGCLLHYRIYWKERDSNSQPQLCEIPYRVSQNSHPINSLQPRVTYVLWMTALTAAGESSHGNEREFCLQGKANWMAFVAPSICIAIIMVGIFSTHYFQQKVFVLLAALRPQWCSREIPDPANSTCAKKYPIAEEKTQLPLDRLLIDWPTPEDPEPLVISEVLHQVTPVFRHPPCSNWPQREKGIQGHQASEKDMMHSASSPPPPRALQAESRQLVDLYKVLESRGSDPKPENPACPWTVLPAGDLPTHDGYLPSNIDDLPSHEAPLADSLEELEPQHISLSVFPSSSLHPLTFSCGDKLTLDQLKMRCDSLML


Key:
[1] = target: T3, IL-12 receptor endogenously expressed on THP-1 cells (UniProt P42701 24-662; Q99665 24-862); experiment: FACS, hybridoma supernatant, THP-1
T3 construct: whole, on cells

[2] = target: T1, cyno IL-12RB2 overexpressed on 293T …; experiment: FACS, hybridoma supernatant, 293T
[3] = target: T2, human IL-12RB2 overexpressed on 293T …; experiment: FACS, hybridoma supernatant, 293T

Row | Binder | Fold over buffer [1] | Fold over parental 293T [2] | Fold over parental 293T [3]
1 | 85802_06A17 (antibody, V domains shown, also called 85802_06A17A) VH: EVQLVQSGAEVKKPGESLKISCKGSGYSFTSYWIGWVRQMPGKGLECMGIIYPGDSDTRYSPSFQGQVTISADKSISTAYLQWSSLKASDTAMYYCARHEGAYWYFDLWGRGTLVTVSS VL: QSVLTQPPSVSGAPGQRVTISCTGSSSNIGAGYDVHWYQQLPGTAPKVLIYGNSNRPSGVPDRFSGSKSGTSASLAITGLQAEDEADYYCQSLDTSHVVFGGGTKLTVL | 28 fold | 11 fold | 2.8 fold
2 | 85802_10K12 (antibody, V domains shown, also called 85802_10K12A) VH: QVTLRESGPALVKPTQTLTLTCTFSGFSLSTSGMCVSWIRQPPGKALEWLALIYWDDDKYYSTSLKTRLTISKDTSKNQVVLTMTNMDPVDTATYYCARMRRGIEAFDIWGQGTMVTVFS VL: QSVLTQPPSVSGAPGQRVTISCTGSSSNIGAGYDVHWYQQLPGTAPKLLIFGYSNRPSGVPVRFSGSKSGTSASLAITGLLAEDEADFYCQSFDISLTGWVFGGGTKLTVL | 27 fold | 13 fold | 3.3 fold
3 | 85802_06F06 (antibody, V domains shown, also called 85802_06F06A) VH: QVQLQESGPGLVKPSETLSLTCTVSGGSISSYYWSWIRQPPGKGLEWFGYIYDSGSTNYNPSLKSRVTISVDTSKNQFSLKLSSVTAADTAVYYCARGSYFWYFDLWGRGTLVTVSS VL: SYELTQPPSVSVSPGQTASITCSGDKLGAKYASWYHQKPGQSPVLVIYQDTKRPSGIPERFSGSNSGNTATLTISGTQAMDEADYYCQAWDSSTVVFGGGTKLTVL | 35 fold | 14 fold | 3.3 fold

Now from value to binder:

Row | Fold over buffer [1] | Fold over parental 293T [2] | Fold over parental 293T [3] | Binder
4 | 34 fold | 10 fold | 2.9 fold | 85802_06H06 (antibody, V domains shown, also called 85802_06H06A) VH: QVHLQESGPGLVKPSETLSLTCTVSGGSISYYYWNWIRQPPGKGLEWIASIYNSGNINYNPSLKSRVTISVDTSKNQFSLKLTSVTAADTAVYYCARGGYSYGYFDNWGQGILVTVSS VL: SYELTQPPSVSVSPGQTASITCSGRELGNKYAYWYQQKPGQSPVLVIYEDYKRPSGIPERFSGSNSGNTATLTISGTQAMDEADYYCQAWDSSTVIFGGGTKLTVL
5 | 21 fold | 12 fold | 3.8 fold | 85802_10M17 (antibody, V domains shown, also called 85802_10M17A) VH: EVLLVESGGGLVKPGGSLRLSCAASGFTFSSYSMNWVRQAPGKGLEWVSSISSSSDYIHYADSVRGRFTISRDNAKNSLYLQMNSLRAEDTAVYYCARSELGFDYWGQGTLVTVSS VL: DIQMTQSPSSVSASVGDRVTITCRASQGISIWLAWYQQKPGKAPKPLIYAASSLQSGVPSRFSGSGSGTDFTLTISSLQPEDFATYYCQQANSFPLTFGGGTKVEIK
6 | 21 fold | 8 fold | 3.4 fold | 85802_08F20 (antibody, V domains shown, also called 85802_08F20A) VH: QVQLVQSGAEVKKPGASVKVSCKASGYTFIGYYIHWVRQAPGQGLEWMGWINPHSGGTNYAQKFQGRVTMTRDTSISTAYMELSRLRSDDTAIYYCTKEANNWGYAFDIWGQGTMVTVSS VL: not shown
7 | 53 fold | 6 fold | 3.3 fold | 85802_02K15 (antibody, V domains shown, also called 85802_02K15A) VH: EVQLVQSGTEVKKPGESLKISCKGSGYSFTSYWIGWVRQMPGKGLEWMGNIYPGDSDTRYSPSFQGHVTISADKSISTAYLQWSSLKASDTAMYYCARRGGGYWGQGTLVTVSS VL: not shown
